Data taken from patent publication CN112574297A.

Biological target: H7N9病毒的神经氨酸酶(NA) (avian influenza virus H7N9)
Assay: cell-based or functional assay

B1: 抗禽流感H7N9神经氨酸酶抗原的单克隆抗体D3 (antibody, V domains shown)
VH: IQVKLQESGPELVKPGASVKISCKASGYSFTGYYMHWVKQSHVKSLQWIGRINPYNGATSYNQNFKDKASLTVDKSSSTAYMELHSLTSEDSAVYYCARSGNYAMDYWGQGTTVTVSS
VL: DIELTQSPASLAVSLGQRATISYRASKSVSTSGYSYMHWNQQKPGQPPRLLIYLVSNLESGVPARFSGSGSGTDFTLNIHPVEEEDAATYYCQHIRELTRSEGGPSSRSN
  NA活性抑制IC50 (酶联凝集素法 ELLA): 5.22 µg/mL
